For the series the following is noted: Escherichia coli (strain K12), pH 8, 25 °C, Urea, CD, whole UniProt chain shown.
The mark [1] stands for this setting: Sodium phosphate 50 mM, reversible: Yes.
The mark [2] stands for this setting: sodium phosphate buffer, transition: 2, reversible: yes.

B1: Lipid A palmitoyltransferase PagP wild type, P37001 (protein)
chain: MNVSKYVAIFSFVFIQLISVGKVFANADEWMTTFRENIAQTWQQPEHYDLYIPAITWHARFAYDKEKTDRYNERPWGGGFGLSRWDEKGNWHGLYAMAFKDSWNKWEPIAGYGWESTWRPLADENFHLGLGFTAGVTARDNWNYIPLPVLLPLASVGYGPVTFQMTYIPGTYNNGNVYFAWMRFQF
In the case of B1, under setting [1], the denaturant m value stood at 1.64 kcal/mol/M, the “denaturant midpoint (higher = more stable)” value turned out to be 8.77 M and the unfolding free energy is 60.2 kJ/mol. Besides, under setting [2], the “denaturant midpoint (higher = more stable)” value is 8.77 M and the unfolding free energy came out at 60.2 kJ/mol.

Values taken from FireProtDB (doi:10.1073/pnas.0911904107).
